Results reported in patent US9718864B2 (HAINAN UNIVERSITY, dated 2017).
No end group written: not given here.

Legend:
Test in all cases: cell-based or functional assay
[1] = target: rat NMDA receptor NR1-2b/NR2D (rat, UniProt P35439)
[2] = target: rat NMDA receptor NR1-2b/NR2A (rat, UniProt P35439)
rat α7 nAChR = rat α7 nAChR (rat, UniProt Q05941)

| Binder | Half-blocking dose IC50 of NMDA receptor current [1] | Half-blocking dose IC50 of NMDA receptor current [2] | Half-blocking dose IC50 of ACh-gated current (rat α7 nAChR) |
| --- | --- | --- | --- |
| TCRSSGRYCRSPYDRRRRYCRRITDACV (not fully specified; ends and bridges not checked) [αO-conotoxin GeXIVA14] | ≥ 10 µM | – | – |
| TCRSSGRYCRSPYDRRRRYCRRITDACV (not fully specified; ends and bridges not checked) [αO-conotoxin GeXIVA13] | ≥ 10 µM | > 10 µM | 4.96 µM |
